Assay in all cases: BLI
For assay [1], the target named is rhNKG2D-Fc (human) (UniProt P26718).
The target is the same in assay [2]. This is another data set of the same source.
Another assay deals with SHH002-hu1-MICA (human) (UniProt Q29983).

Like-named read-outs stand apart in the source and are kept apart here.

UniProt Q29983, sequence (Q29983 whole entry, looked up): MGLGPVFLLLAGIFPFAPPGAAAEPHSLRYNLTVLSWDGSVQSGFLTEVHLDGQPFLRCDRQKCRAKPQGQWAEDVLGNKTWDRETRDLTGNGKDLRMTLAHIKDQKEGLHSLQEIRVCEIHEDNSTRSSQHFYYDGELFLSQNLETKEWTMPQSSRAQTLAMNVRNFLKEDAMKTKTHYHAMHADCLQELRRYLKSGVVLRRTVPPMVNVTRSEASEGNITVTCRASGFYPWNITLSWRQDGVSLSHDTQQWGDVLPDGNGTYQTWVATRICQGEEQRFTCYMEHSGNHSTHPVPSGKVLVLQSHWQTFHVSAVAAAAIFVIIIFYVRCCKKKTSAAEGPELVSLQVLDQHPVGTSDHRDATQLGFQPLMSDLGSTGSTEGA

“rhMICA-His (from UniProt Q29983 24-383) (ligand)”: the Kd in the assay with rhNKG2D-Fc (human) [1] worked out at 1.26 nM; with rhNKG2D-Fc (human) [2] it was 12.6 nM.

On to “rhFzd7-His (from UniProt O75084 33-574) (receptor)”, for which the dissociation constant (Kd) in the assay with SHH002-hu1-MICA (human) was under 0.001 nM.

“rhNKG2D-Fc (from UniProt P26718 73-216) (Fc fusion)” came in with an equilibrium dissociation constant (Kd) with SHH002-hu1-MICA (human) of 45.2 nM.

Broadly, the Kd is the concentration at which binding is half-saturated. The low end stands for higher affinity, the high end for lower affinity.
